Results reported in publication doi:10.1101/2024.08.06.606809.

How the values were obtained:
Test in all cases: SPR
[1] = target: Protein G variant GD
[2] = target: Protein G variant GF
[3] = target: Protein G variant GLM
[4] = target: Protein G-Fc (Fc specific Protein-G variant)

| Kd [1] [nM] | Kd [2] [nM] | Kd [3] [nM] | Kd [4] [nM] | Substance |
| --- | --- | --- | --- | --- |
| 6.4 | 1.9 | 8.9 |  | Fab^H, wild-type human (Herceptin) Fab scaffold with a kappa light chain |
|  |  |  | 3.8 | human Fc (Fc domain of IgG) (domain or fragment) |
